Measurements from patent publication US20240327518A1 (BETTA PHARMACEUTICALS, published 2024).

Columns and labels:
human PD-L1 on cells [1] = target: T1, human PD-L1 on cells (human, UniProt Q9NZQ7 19-290); experiment: competitive flow cytometry on 293T-PD-L1 cells, blocking of human-CD80-mFc binding
T1 construct: whole, on cells; Same protein on three cell lines; also called hPD-L1; the antigen
Method: The blocking of PD-L1 binding to CD-80 by the antibodies was measured using a competitive flow cytometry method. 293T-PD-L1 cells were added to a 96-well plate at 1×10⁵ cells/well. Antibody dilutions with different concentrations (the initial working concentration was 200 nM, and 4-fold dilution was performed) were added to the cells, and the plate was incubated at 4° C. for 30 minutes. After the incubation, the plate was washed with PBS containing 2% FBS and centrifuged at 1200 rpm for 4 minutes, and the supernatants were discarded. Then human-CD80-mFc (2 μg/mL, manufacturer: ACRO) was added at 100 μL/well, and the plate was incubated in the dark at 4° C. for 30 minutes. After the incubation, the plate was washed with PBS containing 2% FBS. A fluorescently labeled goat anti-mouse IgG secondary antibody diluted at 1:200 was added at 100 μL/well, and the plate was incubated in the dark at 4° C. for 30 minutes. After the incubation, the plate was washed with PBS containing 2% FBS and tested on a flow cytometer. The mean fluorescence values were measured.

human PD-L1 on cells [2] = target: T1, human PD-L1 on cells; experiment: cell-based or functional assay
[3] = target: T2, mouse PD-L1-hFc protein (ACRO Biosystems) (mouse, UniProt Q9EP73 19-238); experiment: ELISA, plate coated with mouse PD-L1-hFc
T2 construct: Bought protein; not shown: human Fc (hFc)
T2 sequence (Q9EP73 19-238 limits assumed): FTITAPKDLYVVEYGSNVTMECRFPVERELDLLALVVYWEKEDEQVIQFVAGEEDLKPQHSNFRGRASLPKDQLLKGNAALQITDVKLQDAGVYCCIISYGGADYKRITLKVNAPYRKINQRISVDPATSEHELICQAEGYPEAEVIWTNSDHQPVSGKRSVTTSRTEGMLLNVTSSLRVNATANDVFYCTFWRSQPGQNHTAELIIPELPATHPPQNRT
Method: (§1) A 96-well plate was coated with 1 μg/mL mouse PD-L1-hFc protein (manufacturer: ACRO Biosystems) and incubated at 4° C. overnight. The plate was washed with wash buffer and blocked with a PBS solution containing 2% BSA for 60 minutes. After a wash with wash buffer, different concentrations of the antibodies to be tested (the initial concentration was 100 nM, and 4-fold gradient dilution was performed) were added, and the plate was incubated at 37° C. for 120 minutes. The plate was washed with wash buffer, and an HRP-labeled goat anti-human secondary antibody (diluted at 1:10,000) was then added. The plate was incubated at 37° C. for 60 minutes. The plate was washed with wash buffer, and TMB substrate solution was added at 100 μL/well. After 10-15 minutes of reaction at room temperature, 100 μL of 2 M hydrochloric acid stop solution was added to stop the reaction, and OD450 values were measured with a microplate reader.

human PD-L1 on cells [4] = target: T1, human PD-L1 on cells; experiment: flow cytometry on MC38-hPD-L1 cells overexpressing human PD-L1
Method: The binding activity of the humanized antibodies to PD-L1 was measured by flow cytometry. An MC38-hPD-L1 cell line that overexpresses human PD-L1 (manufacturer: Kyinno Biotechnology (Beijing) Co., Ltd.) was thawed, and the cells were added to a 96-well plate at 1×10⁵ cells/well. Different concentrations of the antibodies to be tested (the initial concentration was 100 nM, and 5-fold gradient dilution was performed) were added, and the plate was incubated at 4° C. for 30 minutes. A fluorescently labeled goat anti-human IgG secondary antibody (manufacturer: abcam, catalog No. 98596) was then added to detect antibodies bound to the cell surfaces. Antibody-antigen binding dose response curves were generated using geometric values, and four-parameter raw data were plotted using the Graphpad Prism V6.0 software.

PD-L1-Biotin = PD-L1-Biotin (UniProt Q9NZQ7 19-238, limits assumed, biotin label (site not stated)); experiment: competitive flow cytometry: antibody premixed with PD-L1-Biotin, blocking of binding to 293T-hPD1 cells
Chain of PD-L1-Biotin (Q9NZQ7 19-238 limits assumed): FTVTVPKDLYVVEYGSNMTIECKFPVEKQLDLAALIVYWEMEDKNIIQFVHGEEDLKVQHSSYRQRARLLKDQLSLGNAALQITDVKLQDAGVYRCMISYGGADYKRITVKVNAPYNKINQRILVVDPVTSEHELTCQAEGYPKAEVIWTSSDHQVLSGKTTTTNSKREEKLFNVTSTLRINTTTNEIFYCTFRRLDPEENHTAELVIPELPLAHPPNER
Method: The blocking of PD-L1 binding to its ligand PD-1 by the humanized antibodies was measured using a method based on competitive flow cytometry. 293T-hPD1 cells were added to a 96-well plate at 1×10⁵ cells/well. Different concentrations of the antibodies to be tested (the initial working concentration was 200 nM, and 4-fold dilution was performed) were mixed with a PD-L1-Biotin dilution (2 μg/mL, 50 μL/well), and the mixtures were incubated at room temperature for 30 minutes. Then the mixtures were added to the cells at 100 μL/well and well mixed. The plate was incubated at 4° C. for 60 minutes, and the blocking activity of the antibodies was measured using a PE fluorescently labeled streptavidin flow cytometry antibody. The mean fluorescence values were measured. Then antibody-antigen blocking reaction curves were generated using geometric values, and four-parameter plots were generated using the Graphpad Prism V6.0 software.

[5] = target: T3, Cynomolgus/Rhesus macaque PD-L1-hFc protein (ACRO Biosystems) (Cynomolgus/Rhesus macaque, UniProt G7PSE7 19-238); experiment: ELISA, plate coated with Cynomolgus/Rhesus macaque PD-L1-hFc
T3 construct: Bought protein; also called Cyno PD-L1; cynomolgus monkey PD-L1
T3 sequence (G7PSE7 entry or part of it limits assumed, form in doubt): as the sequence (Q9NZQ7 19-238 limits assumed) above, with A33T, A34S, S62N, R68Q, Q82R, F173L, T185A, T192I, H215L counted along it
Method: as §1, with “1 μg/mL Cynomolgus/Rhesus macaque PD-L1-hFc protein” for “1 μg/mL mouse PD-L1-hFc protein”, “buffer and then blocked with” for “buffer and blocked with”, “(diluted at 1:10,000, manufacturer: Jackson) was then” for “(diluted at 1:10,000) was then”, “stop the reaction.” for “stop the reaction, and OD450 values were measured with a microplate reader.”

T1 sequence (Q9NZQ7 19-290): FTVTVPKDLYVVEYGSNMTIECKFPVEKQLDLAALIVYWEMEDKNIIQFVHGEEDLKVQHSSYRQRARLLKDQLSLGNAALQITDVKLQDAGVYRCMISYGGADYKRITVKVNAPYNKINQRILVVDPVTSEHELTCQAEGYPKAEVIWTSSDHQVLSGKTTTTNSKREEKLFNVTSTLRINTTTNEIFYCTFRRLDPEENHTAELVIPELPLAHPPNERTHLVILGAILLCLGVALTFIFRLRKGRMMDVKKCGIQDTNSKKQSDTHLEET

| IC50 (human PD-L1 on cells [1]) [nM] | IC50 (nM), NFAT-luciferase reporter gene assay (human PD-L1 on cells [2]) [nM] | EC50 (human PD-L1 on cells [4]) [nM] | IC50 (PD-L1-Biotin) [nM] | EC50 [5] [nM] | Binder | binding result [3] |
| --- | --- | --- | --- | --- | --- | --- |
| – | 0.305 | – | – | 0.034 | antibody 5 (VHH) VHH: QVQLVESGGGLVQAGGSLRLSCAASGRSFSSSGMGWFRQAPGKDREFVATINSSGGDTYYADSVEGRFTTSRDNAKNTMSLQMNDLKPEDTAVYYCAAKEGGGPSSIPAIFDYWGQGTQVTVSS | no binding (tested: initial concentration 100 nM) |
| – | – | 0.025 | – | – | antibody 3hu (VHH, Humanized nanobody; also called humanized antibody 3) VHH: EVQLVESGGGLVQPGGSLRLSCAASGRDFLTYGMGWFRQAPGKGREFVASINWSGSMTYYADSVKGRFTISRDNAKNTVYLQMNSLKAEDTAVYICAARRGAVTYASSNEYEHWGQGTLVTVSS | – |

Continued, binder first:

| Binder | IC50 (human PD-L1 on cells [1]) [nM] | IC50 (nM), NFAT-luciferase reporter gene assay (human PD-L1 on cells [2]) [nM] | EC50 (human PD-L1 on cells [4]) [nM] | IC50 (PD-L1-Biotin) [nM] | EC50 [5] [nM] | binding result [3] |
| --- | --- | --- | --- | --- | --- | --- |
| antibody 2 (VHH) VHH: QVQLVESGGGLVQPGGSLSLSCVASGFTFSSYAMRWVRQAPGKEPEWVAGINTGSEIVVYANSVRGRFAISRDNARDTLFLQMNSLKPEDTAVYYCATGLVSAEHDGIWGQGTQVTVSS | 1.5 | 0.2 | 0.14 | 2.7 | 0.136 | no binding (tested: initial concentration 100 nM) |
| antibody 1 (VHH, expressed in mammalian cells) VHH: QVQLVESGGGLVQAGGSLRLSCAASGRSFSSSGMGWFRQAPGKDREFVATINSSGGDTYYRDSVEGRFTTSRDNAKNTMSLQMNDLKPEDTAVYYCAAKEGGGPSSIPAIYDYWGQGTQVTVSS | 2.6 | 0.378 | 0.041 | 4.2 | 0.133 | no binding (tested: initial concentration 100 nM) |
| antibody 3 (VHH) VHH: EVQLVESGGGSVQTGGSLRLSCVASGRDFLTYGMGWFRQAPGKEREFVASINWSGSMTYYADSVKGRFTISRDNAKNTVYLQMNSLKPGDTAVYICAARRGAVTYASSNEYEHWGQGTQVTVSS | 5.2 | 0.211 | 0.025 | 1.1 | 0.04 | no binding (tested: initial concentration 100 nM) |
| antibody 4 (VHH) VHH: EVQLVESGGGLVQAGDSLRLSCTASGRDFLTYGMGWFRQAPGKEREFVASINWSGSMTYYADSVKGRFTISRDNAKNTVYLQMNSLKPGDTAVYICAARRGAVTYASSNEYEHWGQGTQVTVSS | 1.5 | 0.26 | 0.16 | 2.8 | 0.034 | no binding (tested: initial concentration 100 nM) |
